Experimental findings from patent US20200299408A1 are described below.

Substitutions are numbered along the chain they refer to. In names and notes the source's numbering stands.

B1: 14C7 (antibody, V domains shown)
VH: EVQLQQSGPELVKPGTSVKISCKASGFSFTNYYIHWMKQRPGQGLEWIGWIYPGSDNTKFNDKFKGKATLTADTSSTTAYMQLSSLTSEDSAVYYCARDSITNYYFDYWGQGTTLTVSS
VL: DVVMTQTPSSLAVSTGEKVTMTCKSSQSLLNIRTRKNCLAWYQQKPGQSPKLLIFWASTRYSGVPDRFTGSGSGTDFTLTIRSVQPEDLAVYYCTQSYTLRTFGGGTKLEIK
B2: 18F12 (antibody, V domains shown)
VH: QVQLQQSGPELVKPGASVKISCKASGYSFTNYYMHWVKQRPGQGLEWIGWISPGSGSIKYNEKFKGKATLTADTSSSTAYMQLSSLTSEDSAVYYCARDGYSLYFFDFWGQGTTLTVSS
VL: DIVMTQSPSSLAVSAGEKVTMTCKSSQSLLNSRTRKNYLAWYQQKPGQSPKLLIYWASTRESGVPDRFTGSGSGTDFTLTISSVQAEDLAVYYCKQSFILRTFGGGTKLELK
B3: 27H5-1 (antibody, V domains shown)
VH: QVQLQQSGPELVKPGTSVKISCKTSGYSFINYYTHWVKQRPGQGLEWIGWIYPGNGNIKYNEKFMGKATLTADTSSTTAHMHLSSLVSEDSAVYYCARDSYGSYYFDYWGQGTTLTVSS
VL: B2 VL with A15V, T22S, D66V, K95T, L111I
B4: muSP34 (antibody, V domains shown)
VH: EVQLVESGGGLVQPKGSLKLSCAASGFTFNTYAMNWVRQAPGKGLEWVARIRSKYNNYATYYADSVKDRFTISRDDSQSILYLQMNNLKTEDTAMYYCVRHGNFGNSYVSWFAYWGQGTLVTVSS
VL: QAVVTQESALTTSPGETVTLTCRSSTGAVTTSNYANWVQEKPDHLFTGLIGGTNKRAPGVPARFSGSLIGDKAALTITGAQTEDEAIYFCALWYSNLWVFGGGTKLTVL
B5: 38E4v1 (bispecific antibody, part only; not given: anti-HER2 arm and constant regions, V domains shown, not shown: another chain or arm of the molecule; a dimerising Fc or GST)
VH: EVQLVQSGAEVKKPGASVKVSCKASGFTFTSYYIHWVRQAPGQGLEWIGWIYPENDNTKYNEKFKDRVTITADTSTSTAYLELSSLRSEDTAVYYCARDGYSRYYFDYWGQGTLVTVSS
VL: DIVMTQSPDSLAVSLGERATINCKSSQSLLNSRTRKNYLAWYQQKPGQSPKLLIYWTSTRKSGVPDRFSGSGSGTDFTLTISSLQAEDVAVYYCKQSFILRTFGQGTKVEIK
B6: hu38E4.v1 Fab (Fab, V domains shown)
VH: B5 VH
VL: B5 VL
B7: SP34v52 Fab (Fab, V domains shown)
VH: B4 VH with K15G, K19R, Q78K, S79N, I80T, N87S, K89R, T90A, M95V
VL: EAVVTQEPSLTVSPGGTVTLTCRSSTGAVTTSNYANWVQQKPGQAPRGLIGGTNKRAPWTPARFSGSLLGGKAALTLSGAQPEDEAEYYCALWYSNLWVFGGGTKLTVL
B8: murine 30A1 (antibody, V domains shown)
VH: QVQLKESGPGLVAPSQSLSITCTVSGFSLTNYAIHWVRQPPGKGLDWLGVIWAGGNTKYNSALMSRLSFSKDNSKSQVFLEINSLQTDDTAMYYCAREDSSGYVALDYWGQGTSVTVSS
VL: B2 VL with D1N, T22S, N31S, S32G, F98Y, I99Y, R101L, G105A
B9: murine 13A3 (antibody, V domains shown)
VH: EVQLQQSGPELVKPGASVRISCKASGYTFTSYYIHWMKQRPGQGLEWIGWIYPGNVNTKYNEKFKGKATLTADNSSSTANMQLSSLTSEDSAVYFCARNHDYYFDYWGQGTTLTVSS
VL: B2 VL with M4L, T22S, F98Y, L111I
B10: humanized 30A1: VH3 graft + A24V / K4 graft (antibody, V domains shown)
VH: EVQLVESGGGLVQPGGSLRLSCAVSGFSLTNYAIHWVRQAPGKGLEWVGVIWAGGNTKYNSALMSRFTISRDNSKNTLYLQMNSLRAEDTAVYYCAREDSSGYVALDYWGQGTLVTVSS
VL: B5 VL with N31S, S32G, S49P, T57A, K61E, F98Y, I99Y, R101L

human CD3 on T cells (human), sequence (P07766 22-207 limits assumed): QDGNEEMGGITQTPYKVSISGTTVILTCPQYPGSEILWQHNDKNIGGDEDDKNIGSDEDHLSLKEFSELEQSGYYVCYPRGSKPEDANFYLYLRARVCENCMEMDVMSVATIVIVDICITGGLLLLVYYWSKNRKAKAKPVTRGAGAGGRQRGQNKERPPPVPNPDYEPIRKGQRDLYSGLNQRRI

For the first test, the target named is CD3 antigen of Figures 3B and 3C (not named). Kind of test: kinetic table of IgGs; method and antigen not stated.
Consider B1, for which the Kd – broadly, the equilibrium constant for the complex coming apart – is 228 pM; the koff – broadly, the first-order rate constant of dissociation – is 3.79e-05 s⁻¹; the kon (commonly the second-order rate constant of association) is 166000 M⁻¹ s⁻¹.
For B2, the Kd was determined as 119 pM, the off-rate (koff) was 1.59e-05 s⁻¹ and the kon is 134000 M⁻¹ s⁻¹.
Regarding B3, the dissociation constant Kd turned out to be 492 pM, the dissociation rate constant (koff) was 0.000115 s⁻¹ and the on-rate (kon) is 234000 M⁻¹ s⁻¹.
B4 came in with a Kd of 249 pM, a koff of 4e-05 s⁻¹ and a kon of 161000 M⁻¹ s⁻¹.

Another test concerns the target human CD3 on T cells (human) (UniProt P07766). Briefly: Biacore, monovalent KD of the CD3 arm; form of the CD3 antigen not stated on the sheet [panel B].
With B5, the Kd is 1300 pM.

The target in the next test is hCD3ε1-27-Fc. Kind of test: monovalent binding affinity (p-1384), method not stated on the sheet.
hCD3ε1-27-Fc, sequence (fusion chain, as listed by the source): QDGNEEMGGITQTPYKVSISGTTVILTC
On to B6, for which the Kd stood at 1000 pM.
Take B7: the dissociation constant (Kd) is 11000 pM.

The next test deals with commercial CD3ε. Briefly: binding affinity on commercial CD3ε (Creative Biomart CD3E-2194H); method not given.
commercial CD3ε, sequence (P07766 22-126): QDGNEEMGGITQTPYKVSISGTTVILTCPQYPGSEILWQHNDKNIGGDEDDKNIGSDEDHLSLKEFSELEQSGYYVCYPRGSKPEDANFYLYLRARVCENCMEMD
Take B8: the equilibrium dissociation constant (Kd) is 400 pM.
Molecule B9 had a Kd of 700 pM.
On the same count and under the same terms, the figure for B10 is 1700 pM.
